Here are results for one molecule from patent US20240084032A1 (BLUEFIN BIOMEDICINE, published 2024).

Assay [1] has as its target T1, recombinant human CDCP1 ECD (AA30-667) with C-terminal His tag (human, UniProt Q9H5V8 30-667).
T1 construct: range 30-667; also called FL-ECD; recombinant FL-ECD
The assay is described as follows: Octet BLI, Ab on Protein A sensor, recombinant CDCP1 analyte.
Procedure: (§1) Affinity: The affinity of antibodies to various recombinant CDCP1 molecules was determined on an Octet Red (Pall, ForteBio) instrument. After loading reagents into a 96-well plate, the Octet Red with Protein A-conjugated biosensors was programmed as follows: 30 seconds for baseline #1; 120 seconds to immobilize the antibody; 30 seconds for baseline #2; 300 seconds for association of antibody to recombinant CDCP1; and 300-600 seconds for dissociation of recombinant CDCP1 from the antibody.

The target in a further assay is T2, Cynomolgus monkey CDCP1 (Macaca fascicularis, UniProt A0A2K5VLA8).
T2 construct: recombinant ectodomain from CHO cells; construct not given; also called cyCDCP1; BBP468
The assay is described as above.
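Also: antibody captured for 120 s on the sensor, followed by 300 s association with CDCP1 and a 300–600 s dissociation phase.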

Procedure for Cynomolgus monkey CDCP1: as §1

B1: 38E11 (antibody, human IgG1, V domains shown)
VH: EVQLLESGGGLVQPGGSLRLSCAASGFTFSNYAMNWVRQAPGKGLEWVSAISGGGGSTYYADSVKGRFTISRDNSKNTLYLQMNSLRAEDTAVYYCAKESITMVRGVMDYYGMDVWGQGTTVTVSS
VL: DIQLTQSPSFLSASVGDRVTITCRASQGISSYLAWYQQKPGKAPKLLIYAASTLQGGVPSRFSGSGSGTEFTLTISSLQPEDFATYYCQHLNRFPRTFGQGTKVEIK
notes: also called human antibody 38E11
Consider B1, for which the Kd in assay [1] is 2 nM; with Cynomolgus monkey CDCP1, 4 nM.

As usually defined, the Kd is the constant that tells how readily two partners part at equilibrium.
